According to the DeepSol protein solubility set:

Assay: soluble on expression in E. coli; label from the status in PepcDB or PDB records
For “MLKFKNRIVEKRVKGAEKASFGGPVLLYRTLRKVTKLYKYITDKKSFPILVTSLFALFNPNSVLAADKYSNFEELKENESPLSYNILTTDVDRRVLILAPHGGGIEGGTSELARELSKSYSAYLFEGLRIPGASELHITSTNFDEPQALDLLSKHDLTISIHGYASSKKHTLVGGTDREKAAKITSLLTDAGFSAELLSEDSRLAGTNEQNIANKNSTGMSIQLEISTEQRREMFNTFTLAGRNGTQNQVFYDYIAVLTKFINENVYCMAGVAPLEHHHHHH”, the “soluble on expression in E. coli” value was “not soluble”.
With “MSLTAYQASSQARVDAAMHTLFTAPSPELARLYEAMRYSVMNGGKRVRPLLAYAACEALGGKPEQANGAACAVELIHAYSLVHDDLPAMDDDDLRRGQPTTHKAFDEACAILAGDGLQSLAFSALLDPALSDASAEIRLRMVTTLAQAAGPAGMVGGQAIDLGSVGLKLDQQALEYMHRHKTGALIEASVILGALASGRAEKGELKALQTYAQAIGLAFQVQDDILDVESDTATLGKRQGADIARDKPTYPALLGLAAAKEYALELRDQALHALRPFDAAAEPLRELARYIVERRSEGHHHHHH” the “soluble on expression in E. coli” value was “soluble”.
In the case of “MRLRAILASLALALTSLGAQAETIRVAIGTQDTTINCAAGGLLIRELGLLEKYLPRDGRYKDADYRVEWKNFTSGAPLTNEMVAGKLDFGAMADFPGTFNGVAFAAAGKRSLFISVLSGSTRGSGNGIVVPSGSPVQSLAELKGQTISVPFASTAHGMLLRAVAAQGWDPQRDVTIIAQPPEIAGSALQANKIAAHADFVPFAELFPNRGFARKIYDGSQANAPTFHGALVDAAYAERYPEVVVAYLRASIEANRLLAAEPEKYSELIEKVTGIEAEVNYLFHGPLGLQTRDQAWKPEYRQALATSIDTLKLLKKADRGLDVERFVDDRYIREAYRQAGLDYQAALADYAPSPLRASDARSGRPIEEFERVAQIWVKGEARVRHYASPESALADLAELKAQGKAIRAIYAQDRDSGIKLLANQAWFVRDGEGRLNAFLLREQAQDYARRHGGEVRDFAAASQQALALR”, the “soluble on expression in E. coli” value is reported as “not soluble”.
In the case of “GLLDLKSMIEKVTGKNALTNYGFYGCYCGWGGRGTPKDGTDWCCWAHDHCYGRLEEKGCNIRTQSYKYRFAWGVVTCEPGPFCHVNLCACDRKLVYCLKRNLRSYNPQYQYFPNILCS”, the “soluble on expression in E. coli” value is reported as “soluble”.
With “MGSDKIHHHHHHMSSSAKPLPTIERPREDASGRARVPGWVIGIDLGGTKILAGIARTQEQIIATREEPTLHGEDAPVLAQMARLITSLLSDAGALAQELDNVVIGVPSAVDPQTGLSSLSPNLALPVDRPLADLMSRFVSCPVTVENDVNLAAYGEAWAGAGQGLGSLVFVSFGTGVGMGIVLDGEPWRGAAGRAGEIAYLPVGAAPHETAPLSENGLYEDGVGTSGIRQRFTRDGGTVAELFSLARSGNEQARLAIDSVAKQASIGIAAVHALLDPAVTVIGGGIGSQPEFFTLLQAHLQPLLPFESPLKQSRLGVQAGMIGAVALALKNRVPHPEKSNAENL” the “soluble on expression in E. coli” value was “not soluble”.
For “MLEQIRNTHPLVYQNFSALPDGEKHLRSILAIDRYWEKLDLPVPDVILAGSRLPVDACVEEACDILYAGGTLGLLHAAVMSKKYGRKVLVIDRAEPGRTTRDWNISRGELLRLADTGVFTSEELDSTIVRMYKTGWVEFHAPAERRKRLYMDEVLDCAVDADRLLGMACKKVLAGGGSKVLGHTSFVCCYQFPDHLVVQVEELSGKPRYFRTQVLVDAMGIVSPVAMQLNRGRPQTHVCPTVGTIASGFENADFEVGEILASTEDAEVSGKRGRQLIWEGFPAKGDEYITYLFFYDKVDSPNDKSLLGLFEAYFRKLPEYKKPGPNFTIHRPVFGIIPAYFHDGAGCTRVVSGERIALLGDAASLASPLTFCGFGSVVRNLDRMTSGLDRAMREGRLGAAELANISAYEPNVASMATLMKYMCYDPETDEPGFVNEMMNEVMIVLDELPQRYRQAMFRDEMKVEELVTVMLKVAWRYPKILKATWNKLGVGGSVGFVKNLAGWAISQNEKRGLEHHHHHH”, the “soluble on expression in E. coli” value was “not soluble”.
In the case of “MGSDKIHHHHHHMNRLVSRSTLLNASRCFSRTAEASAKQTCLIETHKKHGGKLVEFAGYDMPTQYADFSIKESTIHTRKHVSLFDVSHMLQTYITGKDRVAFIESLTTADVQGLQENSGTLSVFTNEKGGIKDDLIIMKTDKDFLFLVTNAGCIEKDLPYLQENAAAWRSKGKDVKIETLDNRGLVAVQGPEMAKVLQEGTDIDLSKLTFMKTTVGKVFGIDGCRVTRCGYTGEDGVEISVDPTKAEQLVERLLASQAGSVKLAGLGARDALRLEAGLCLYGSDIEENTTPIEAGLAFVVAKRRRETLDFPGAEHIVKQLKEKSWPKRRVGLLAPAGRCPRSHLPLIDPLDKCSIGFVTSGCPSPTLGKNIAIAYVDKSHSKIGTKFVVDFGAKQAPVEVVKMPFVPTNYFTGK”, the “soluble on expression in E. coli” value is reported as “not soluble”.
With “MREWKIIDSTLREGEQFEKANFSTQDKVEIAKALDEFGIEYIEVTTPVASPQSRKDAEVLASLGLKAKVVTHIQCRLDAAKVAVETGVQGIDLLFGTSKYLRAPHGRDIPRIIEEAKEVIAYIREAAPHVEVRFSAEDTFRSEEQDLLAVYEAVAPYVDRVGLADTVGVATPRQVYALVREVRRVVGPRVDIEFHGHNDTGCAIANAYEAIEAGATHVDTTILGIGERNGITPLGGFLARMYTLQPEYVRRKYKLEMLPELDRMVARMVGVEIPFNNYITGETAFSHKAGMHLKAIYINPEAYEPYPPEVFGVKRKLIIASRLTGRHAIKARAEELGLHYGEEELHRVTQHIKALADRGQLTLEELDRILREWITAHHHHHH” the “soluble on expression in E. coli” value was “soluble”.
In the case of “GPGSMESSMSTGDLLTPGALWQDDTKVFVCSGRRCGRRFNRLFCPKHRCRWCGRVYCDACAPKQTVYKRQLLRKCNRCRLPVVFRYSWNERTRAMDCTPFECIISYLTPRSITALLQSCYTMMSEFPVCGYPFYDSIQQRFPSFYPGAQIGRGTFGTVFKCEDRSAADHKRAILKCISKATNLTYTRWMGALTELRILESVNHPNVAHLLGAFQTREDLVIVMEAGEGGTARRAAAGVREYGQAAEEAFTANIIEGVAAGLNYLYREKHIIHRDIKLDNIVLSADYSTPMIIDFGLAEFVVNEEEQWYVVGGTRNYAAPESIAAVANGHVDMKEPGITMHKGDLFSLGVVAYYLLSGHRPFRSRSFDKMHEEMRRGVACTGPLWDGVSSDARELVQALLSYDPAQRPDYAAIKENPFITARTAGVKSIQMQRNARLLLDEEETHAEWVTLEPSDLREAADEGESEVLLPLSTPQRWYHAYLPRFSLLHL”, the “soluble on expression in E. coli” value is reported as “not soluble”.
In the case of “MSLEYARRQALAREGLSAAGLDALIVTGPENIFYLCGQQTPGYYTFQALILPADGDPVFLIRQLEYFNFIANTFISDAVVYQDGEDPLALLVKLIESRGLASRRIAIDKRGWFLPIAVYEALQARLGTIGDGAGVIERFRAIKSPLEVEKLEKAAAYVDEGMRAGLAAVRVGATENDLVSAMLGSAIAAGSEYLGMEPLVSVGPRTGVPHGTWRRRAITDGDPAFLEMAACHDRYHAALMRSAWIGEPPREAVDMMKACQEALQVSLDTIRPGVACEVPHIACQKVIDRAGYTDNFKKRLGYSVGISFAPDWGEGAILSLNTGVKTELQPGMTFHLPPALRIYGRFTVGVSETIVVTETGYRALGSIDRNLLIVEGHHHHHH”, the “soluble on expression in E. coli” value is reported as “soluble”.
For “NLYFQGHMDNVDELRKIENKSSFVSADNMPEYVKGAFISMQDERFYNHHGFDLKGTTRALFSTISDRDVQGGSTITQQVVKNYFYDNDRSFTRKVKELFVAHRVEKQYNKNEILSFYLNNIYFGDNQYTLEGAANHYFGTTVNKNSTTMSHITVLQSAILASKVNAPSVYNINNMSENFTQRVSTNLEKMKQQNYINETQYQQAMSQLN”, the “soluble on expression in E. coli” value was “soluble”.
In the case of “MRIFLNTVHLFALCAAAAIATEESTTPKPASWKFGTIAGEPDDYTNSTAVQVNNFKECIAKCSAIFDCIIASQKSKSEPCNLFLWNSVTKVKRAESGGEGQTAFRVFTEQPRCKLSMDELLNGKKYQIYKNDTEHYIWTINKTEDGWAMEYSKTILNNIIHCNDPDAYKYPGVRGCYKIVLPFKEDKKWESGMLSYPEAVGNCTLLGGDGLMTIPSSDFASQIKQNQNSTQSSTVYFIGLTRPDDSSNDNWVWTLPDLKIDSSPLPPWSFPPSLNVEAIWAENCALVSIEADPTKSLLHATLCQQWNRMSGYICHFAQ”, the “soluble on expression in E. coli” value is reported as “not soluble”.
For “MLSTVFRRTMATGRHFIAVCQMTSDNDLEKNFQAAKNMIERAGEKKCEMVFLPECFDFIGLNKNEQIDLAMATDCEYMEKYRELARKHNIWLSLGGLHHKDPSDAAHPWNTHLIIDSDGVTRAEYNKLHLFDLEIPGKVRLMESEFSKAGTEMIPPVDTPIGRLGLSICYDVRFPELSLWNRKRGAQLLSFPSAFTLNTGLAHWETLLRARAIENQCYVVAAAQTGAHNPKRQSYGHSMVVDPWGAVVAQCSERVDMCFAEIDLSYVDTLREMQPVFSHRRSDLYTLHINEKSSETGGLKFARFNIPADHIFYSTPHSFVFVNLKPVTDGHVLVSPKRVVPRLTDLTDAETADLFIVAKKVQAMLEKHHNVTSTTICVQDGKDAGQTVPHVHIHILPRRAGDFGDNEIYQKLASHDKEPERKPRSNEQMAEEAVVYRNLM”, the “soluble on expression in E. coli” value was “soluble”.
With “GMQATTATPHDIVFLFDCDNTLLDNDHVLADLRAHMMREFGAQNSARYWEIFETLRTELGYADYLGALQRYRLEQPRDTRLLLMSSFLIDYPFASRVYPGALNALRHLGARGPTVILSDGDVVFQPRKIARSGLWDEVEGRVLIYIHKELMLDQVMECYPARHYVMVDDKLRILAAMKKAWGARLTTVFPRQGHYAFDPKEISSHPPADVTVERIGDLVEMDAEWLLAEKR” the “soluble on expression in E. coli” value was “soluble”.
In the case of “MHHHHHHSSGVDLGTENLYFQSMNGPEDLPKSYDYDLIIIGGGSGGLAAAKEAAQYGKKVMVLDFVTPTPLGTRWGLGGTCVNVGCIPKKLMHQAALLGQALQDSRNYGWKVEETVKHDWDRMIEAVQNHIGSLNWGYRVALREKKVVYENAYGQFIGPHRIKATNNKGKEKIYSAERFLIATGERPRYLGIPGDKEYCISSDDLFSLPYCPGKTLVVGASYVALECAGFLAGIGLDVTVMVRSILLRGFDQDMANKIGEHMEEHGIKFIRQFVPIKVEQIEAGTPGRLRVVAQSTNSEEIIEGEYNTVMLAIGRDACTRKIGLETVGVKINEKTGKIPVTDEEQTNVPYIYAIGDILEDKVELTPVAIQAGRLLAQRLYAGSTVKCDYENVPTTVFTPLEYGACGLSEEKAVEKFGEENIEVYHSYFWPLEWTIPSRDNNKCYAKIICNTKDNERVVGFHVLGPNAGEVTQGFAAALKCGLTKKQLDSTIGIHPVCAEVFTTLSVTKRSGASILQAGCGG”, the “soluble on expression in E. coli” value is reported as “soluble”.
For “MNTKPKTIATSSTLELPKLHFQYDNTTTTFTEEEKLIDLKPTSEANYVKFWYNIVRNTYSQTHTNGSPVKPYLVANIERTIDTRLGEVFLHKKERSEHWASIAWFFNIDVKGKLVEKIIIRMSGIEELILNSGTTQIGENLNLISKSTRIPIEQNLTIDNPQLEVFYIMALWTISLDARAFKADLEDGINSESFSVEVFWKSKQDHNQTTISI”, the “soluble on expression in E. coli” value was “not soluble”.
For “GSPGILMASQGTKRSYEQMETGGERQNATEIRASVGRMVGGIGRFYIQMCTELKLSDQEGRLIQNSITIERMVLSAFDERRNRYLEEHPSAGKDPKKTGGPIYRRRDGKWVRELILYDKEEIRRIWRQANNGEDATAGLTHMMIWHSNLNDATYQRTRALVRTGMDPRMCSLMQGSTLPRRSGAAGAAIKGVGTMVMELIRMIKRGINDRNFWRGENGRRTRIAYERMCNILKGKFQTAAQKAMMDQVRESRNPGNAEIEDLIFLARSALILRGSIAHKSCLPACVYGLAVASGYDFEREGYSLVGIDPFRLLQNSQVFSLIRPNENPAHKSQLVWMACHSAAFEDLRVSSFIRGTRVIPRGQLSTRGVQIASNENVEAMDSSTLELRSRYWAIRTRSGGNTNQQRASAGQISVQPTFSVQRNLPFERATIMAAFKGNTEGRTSDMRTEIIRMMESARPEDVSFQGRGVFELSDEKATNPIVPSFDMSNEGSYFFGDNAEEYDN”, the “soluble on expression in E. coli” value was “soluble”.
